Residue numbers refer to the chain shown, from its start.
T1: human MEFLIN expressed on cells (human, UniProt O14498 19-428)
T1 sequence (looked up): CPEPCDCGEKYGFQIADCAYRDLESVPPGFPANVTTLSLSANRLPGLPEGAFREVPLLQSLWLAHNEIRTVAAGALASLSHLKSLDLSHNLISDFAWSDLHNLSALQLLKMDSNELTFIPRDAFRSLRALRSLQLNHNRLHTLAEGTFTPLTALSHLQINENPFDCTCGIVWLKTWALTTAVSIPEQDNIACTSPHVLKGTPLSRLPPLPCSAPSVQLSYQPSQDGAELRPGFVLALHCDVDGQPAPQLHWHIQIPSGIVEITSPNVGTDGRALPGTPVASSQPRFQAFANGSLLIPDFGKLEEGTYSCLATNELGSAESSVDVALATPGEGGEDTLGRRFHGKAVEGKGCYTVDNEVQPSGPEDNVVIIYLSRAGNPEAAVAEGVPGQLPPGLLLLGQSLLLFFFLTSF

T2: human MEFLIN protein (human, UniProt O14498 19-428, limits assumed)
T2 construct: In the Western blot the protein and its fragments carried a C-terminal G196 tag and His tag and were expressed in HEK293 cells; also called hMEFLIN; ISLR
T2 sequence (looked up): T1 sequence (looked up)

B1: ADC27-7 (other, DAR 2.4)
VH: EVQLVESGGSLVQPGGSLKLSCVASGYTFSKYWMDWVRQTPGKSLEWIGEINTDGSKTNYAPSIKDRFTISRDNAKSTLYLQMSNVKSDDTAIYYCTNWEDYWGQGVMVTVSS
VL: DVVMTQTPPSLSVAIGQSVSISCKSSQSLVYSDGKTYLHWLLQSSGRSPKRLIYQVSNLDSGVPDRFSGTGSQKDFTLKISRVEAKDLGVYYCAQTTHFPYTFGAGTKLELK
modifications: MMAE drug-linker on cysteine thiols exposed by DTT reduction (positions not stated)
B2: 35-9 antibody (antibody, V domains shown)
VH: QVQLTESGPGLVQPSQTLSLTCTVSGFSLSSYGVIWVRQPPGKGLEWMGVIWGNGNTNYNSTLKSRLSISRDTSKSQVFLKMNILQTEDTAMYFCARWESGDYWGQGVTVTVSS
VL: DVVMTQTPVSLSVAVGQPASISCTSSQSLVGSGGKTYLNWFLQRPGQSPKRLISLVSKLDSGIPDRFSGSGSETDFTLKISRVEADDLGVYYCLQGTHFPWTFGGGTKQELK
notes: Rat hybridoma monoclonal antibody; used as hybridoma culture supernatant; also called clone 35-9
B3: 34-4 antibody (antibody, V domains shown)
VH: QVQLMESGPGLVQPSQTLSLTCTVSGFSLTSYDMHWVRQPPGKGLEWMGVIWGNGNTHYNSALKSRLSISRDTSKSQVFLKMNSLQTENTAIYFCTGGYFYWGQGVTVTVSS
VL: DVVMTQTPVSLSVAIGHPASISCKSSQSLVGTGGKTYLSWLLQRPGQSPKRLIYLVSKLDSGIPDRFSGSGSETDFTLKISRVEADDLGVYYCLQGTHFPFTFGSGTQLEMK
notes: Rat hybridoma monoclonal antibody; used as hybridoma culture supernatant; also called clone 34-4
B4: 27-8 antibody (antibody, V domains shown)
VH: VQLTESGPGLVKPSQSLSLTCSVTGYTITSGYDWSWIRKFPGNKMEWMGYITYSGSTNYNPSLKSRISITRDTSKNQFFLQLNSVTTEDTATYYCSRDIAAISFAYWGQGTLVTVSS
VL: DVVMTQTPVAQPVTLGDQASISCRSSQSLVHSNGNTYLEWYLQKPGQSPQLLIYKVSNRFSGVPDRFIGSGSGSDFTLKISRVEPEDLGVYYCFQATHVPLTFGSGTKLEIK
notes: Rat hybridoma monoclonal antibody; used as hybridoma culture supernatant; also called clone 27-8
B5: 46-3 antibody (antibody, V domains shown)
VH: VQLKESGPGLVKPSQSLSLTCSVTGYTITSGYDWSWIRKFPGNKMEWMGFITYSGSTHHNPSLKSRISITRDTSRNQFFLQLNSVTTEDSATYYCARDFSGISFAYWGQGTLVSVSS
VL: B4 VL with M4L, A19V, V90I, V99D
notes: Rat hybridoma monoclonal antibody; used as hybridoma culture supernatant; also called clone 46-3
B6: 27-7 antibody (antibody, V domains shown)
VH: B1 VH
VL: B1 VL
notes: Rat hybridoma monoclonal antibody; used as hybridoma culture supernatant; also called clone 27-7
B7: 11-8 antibody (antibody, V domains shown)
VH: VQLQESGPELVKPGASVKISCKASGYSFTDYIILWVKQSHGKSLEWIGNINPYSGNTRYNLKFKGKATLTVDKSSSTAYMQLNSLTSEDSAVYYCARDGDDYAMDYWGQGTSVTVSS
VL: DIVITQTPLSLPVSLGDQASISCRSSQSIVHSNGNTYLEWYLQKPGQSPRLLIYKVSNRFSGVPDRFSGSGSGTDFTLKISRVETEDLGVYYCFQGSHVPWTFGGGTKLEIK
notes: Mouse hybridoma monoclonal antibody; used as hybridoma culture supernatant; also called clone 11-8
B8: 32-1 antibody (antibody, V domains shown)
VH: VQLQQSGGDLVKPGGSLKLSCAASGFTFSSYGMSWVRQTPDKRLEWVATISSGGSYTYYPDSVKGRFTISRDNAKNTLYLQMSSLKSEDTAMYYCVIDYDVMDYWGQGTSVTVSS
VL: DIVMTQTPSSLAVSAGEKVTMSCKSSQSLLNSRTRKNYLAWYQQKPGQSPKLLIYWASTRESGVPDRFTGSGSGTDFTLTISSVQAEDLAVYYCKQSYNLRTFGGGTKLEIK
notes: Mouse hybridoma monoclonal antibody; used as hybridoma culture supernatant; also called clone 32-1

target: T1, human MEFLIN expressed on cells; assay: cell-based or functional assay

Binder	EC50 of cell proliferation inhibition (MTT test)
B1	0.72 nM

target: T2, human MEFLIN protein; assay: Western blotting on tagged human MEFLIN fragments
Experimental: The human embryonic kidney (HEK293) cell line was allowed to transiently express pRP-CMV vector having an insert of DNA encoding the human MEFLIN protein or a fragment thereof by lipofection, and a cell lysate was prepared. […] SDS-PAGE was performed using the cell lysate, and the electrophoresed protein was transferred to a PVDF membrane. The PVDF membrane was reacted at ordinary temperature for 1 hour using 5% skimmed milk/PBS. The primary antibody used was a culture supernatant of each hybridoma clone diluted 50-fold with PBS. For a positive subject, an anti-G196 antibody was used as a primary antibody. The PVDF membrane was reacted overnight at 4° C. in the presence of the primary antibody. Then, the PVDF membrane was washed with 0.05% Tween/PBS. The secondary antibody used was an anti-rat or anti-mouse antibody-horseradish peroxidase (HRP) conjugate. The secondary antibody was diluted 1000-fold with PBS and reacted with the PVDF membrane at ordinary temperature for 45 minutes. After washing with 0.05% Tween/PBS, the HRP label on the antibody was allowed to emit light using ECL (GE Healthcare Japan Corp.), and an image was captured into a computer using a CCD imager (Las 4000, GE Healthcare Japan Corp.).

Binder	binding result
B2	binds
B3	binds
B4	binds
B5	binds
B6	binds
B7	binds
B8	binds

Reference: patent publication US20230084099A1 (NATIONAL UNIVERSITY CORPORATION TOKAI NATIONAL HIGHER …, published 2023)
